Molecular target: GST-IRP2Δ73 (human) (UniProt P48200)
Assay: AlphaScreen or HTRF

IC50: 0.12 nM
Substance: FBXL5C492Δ-SKP1 complex (tag-free) (from UniProt Q9UKA1 200-691; P63208 1-163)

Source: publication PMC7159994
